Data from the Immune Epitope Database (IEDB).

Key:
HLA-A*01:01 [1] = assay: IEDB peptide-MHC binding, purified MHC/direct/fluorescence; filed as Kd, often an IC50 or EC50 that approximates it; ≥ and ≤ were set here for values at or beyond the usual limits of such assays
HLA-A*02:01 = assay: as above
HLA-A*11:01 [2] = assay: as above; details: source organism: Marburg virus - Musoke, Kenya, 1980
HLA-A*26:03 = assay: as above; details: source organism: Orthomarburgvirus marburgense
HLA-A*31:01 = assay: as above
HLA-A*68:02 = assay: as above; details: source organism: Marburg virus - Musoke, Kenya, 1980
HLA-A*69:01 = assay: as above
HLA-B*07:02 = assay: as above; details: source organism: Marburg virus - Musoke, Kenya, 1980
HLA-B*08:01 [3] = assay: as above
HLA-B*15:01 [4] = assay: as above
HLA-B*15:17 [5] = assay: as above
HLA-B*27:05 = assay: as above
HLA-B*46:01 [6] = assay: as above
HLA-B*48:01 = assay: as above
HLA-B*57:01 [7] = assay: as above
HLA-B*58:01 = assay: as above
HLA-A*26:02 = assay: IEDB peptide-MHC binding, purified MHC/competitive/fluorescence; filed as Kd, often an IC50 or EC50 that approximates it; ≥ and ≤ were set here for values at or beyond the usual limits of such assays; details: source organism: Orthomarburgvirus marburgense
HLA-B*15:09 [8] = assay: as above
HLA-B*35:01 = assay: as above; details: source organism: Orthomarburgvirus marburgense
HLA-B*39:01 = assay: as above
HLA-A*03:01 = assay: IEDB peptide-MHC binding, purified MHC/direct/fluorescence; filed as Kd, often an IC50 or EC50 that approximates it; ≥ and ≤ were set here for values at or beyond the usual limits of such assays; details: source organism: Rickettsia canadensis
HLA-A*26:01 [9] = assay: as above; details: source organism: Candidatus Rickettsia tarasevichiae
HLA-B*15:09 [10] = assay: as above; details: source organism: Candidatus Rickettsia tarasevichiae
HLA-B*38:01 [11] = assay: as above; details: source organism: Candidatus Rickettsia tarasevichiae
HLA-B*40:01 = assay: as above; details: source organism: Rickettsia canadensis
HLA-A*11:01 [12] = assay: IEDB peptide-MHC binding, purified MHC/competitive/fluorescence; filed as Kd, often an IC50 or EC50 that approximates it; ≥ and ≤ were set here for values at or beyond the usual limits of such assays; details: source organism: Rickettsia canadensis
HLA-A*26:01 [13] = assay: as above; details: source organism: Cryptosporidium parvum Iowa II
HLA-A*29:02 = assay: as above; details: source organism: Cryptosporidium parvum Iowa II
HLA-A*80:01 = assay: as above; details: source organism: Cryptosporidium parvum Iowa II
HLA-B*15:01 [14] = assay: as above
HLA-B*18:01 = assay: as above; details: source organism: Cryptosporidium parvum Iowa II
HLA-B*27:03 = assay: as above; details: source organism: Cryptosporidium parvum Iowa II
HLA-B*46:01 [15] = assay: as above; details: source organism: Cryptosporidium parvum Iowa II
HLA-B*51:01 = assay: as above; details: source organism: Cryptosporidium parvum Iowa II
HLA-B*57:01 [16] = assay: as above; details: source organism: Cryptosporidium parvum Iowa II
HLA-A*01:01 [17] = assay: as above; details: source organism: Human immunodeficiency virus 1
HLA-A*30:01 = assay: as above; details: source organism: Human immunodeficiency virus 1
HLA-B*08:01 [18] = assay: as above; details: source organism: Human immunodeficiency virus 1
HLA-B*15:17 [19] = assay: as above; details: source organism: Human immunodeficiency virus 1
HLA-B*38:01 [20] = assay: as above; details: source organism: Human immunodeficiency virus 1
[21] = source organism: Marburg virus - Musoke, Kenya, 1980
[22] = source organism: Orthomarburgvirus marburgense
[23] = source organism: Rickettsia canadensis
[24] = source organism: Cryptosporidium parvum Iowa II
[25] = source organism: Human immunodeficiency virus 1

Measured: Kd

NQECWDSVF
0.364 µM: HLA-B*39:01; [22]
0.216 µM: HLA-B*35:01
0.373 µM: HLA-B*15:01 [4]; [21]
2.52 µM: HLA-B*15:09 [8]; [22]
0.384 µM: HLA-A*26:02
≥ 20 µM: HLA-A*01:01 [1]; [21] | HLA-A*02:01; [21] | HLA-A*11:01 [2] | HLA-A*26:03 | HLA-A*31:01; [21] | HLA-A*68:02 | HLA-A*69:01; [21] | HLA-B*07:02 | HLA-B*08:01 [3]; [22] | HLA-B*15:17 [5]; [21] | HLA-B*27:05; [21] | HLA-B*46:01 [6]; [21] | HLA-B*48:01; [21] | HLA-B*57:01 [7]; [21] | HLA-B*58:01; [21]

SSEADCFTY
0.0553 µM: HLA-A*01:01 [1]; [23]
0.0816 µM: HLA-B*15:17 [5]; [23]
≥ 20 µM: HLA-A*02:01; [23] | HLA-A*03:01 | HLA-A*26:01 [9] | HLA-A*31:01; [23] | HLA-A*69:01; [23] | HLA-B*08:01 [3]; source organism: Candidatus Rickettsia tarasevichiae | HLA-B*15:01 [4]; [23] | HLA-B*15:09 [10] | HLA-B*27:05; [23] | HLA-B*38:01 [11] | HLA-B*40:01 | HLA-B*46:01 [6]; [23] | HLA-B*48:01; [23] | HLA-B*57:01 [7]; [23] | HLA-B*58:01; [23] | HLA-A*11:01 [12]

KLGDITLFL
≥ 20 µM: HLA-A*26:01 [13] | HLA-B*15:01 [14]; [24] | HLA-B*18:01 | HLA-B*27:03 | HLA-B*39:01; [24] | HLA-B*46:01 [15] | HLA-B*51:01 | HLA-B*57:01 [16]
0.0341 µM: HLA-A*29:02
0.0156 µM: HLA-A*80:01

GSEEIKSLF
≥ 20 µM: HLA-A*01:01 [17] | HLA-A*30:01 | HLA-B*08:01 [18] | HLA-B*15:01 [14]; [25] | HLA-B*15:09 [8]; [25] | HLA-B*38:01 [20]
0.182 µM: HLA-B*15:17 [19]
